Experiment [1] has as its target All4144 (GrpE homolog of Anabaena sp. PCC 7120), full length (Anabaena sp. PCC7120). Kind of experiment: cross-linking.
Experiment [2] deals with All4144(68–214), N-terminal deletion mutant of All4144 lacking the HTH domain (Anabaena sp. PCC7120). In words: cross-linking.

Stoichiometry N data for two substances are collected here from publication doi:10.1101/2025.04.14.648684.

A word on the stoichiometry N: it is the number of molecules, sites or subunits per partner or assembly. For the substance “All4144 (GrpE homolog of Anabaena sp. PCC 7120), full length (natural protein)”, in experiment [1], the stoichiometry N was 2.
As to “All4144(68–214), N-terminal deletion mutant of All4144 lacking the HTH domain (domain or fragment)”, the stoichiometry N in experiment [2] was determined as 2.
